Laboratory results published in patent publication US8765674B2, “Methods useful in the treatment of bone resorption diseases” (NPS Pharmaceuticals, Inc., priority 1997, dated 2014).

B1: PTH: Parathyroid hormone, an 84 amino acid polypeptide normally secreted from the parathyroid glands (protein, UniProt P01270 32-115, looked up)
Parathyroid hormone: SVSEIQLMHNLGKHLNSMERVEWLRKKLQDVHNFVALGAPLAPRDAGSQRPRKKEDNVLVESHEKSLGEADKADVNVLTKAKSQ
B2: intact human PTH (1-84): intact human parathyroid hormone, full-length 84 amino acid polypeptide (protein, UniProt P01270 32-115, looked up)
Parathyroid hormone: B1 Parathyroid hormone

Assays:
[1] = test system: patient with osteoporosis; details: during therapy with PTH, cited from earlier work
[2] = test system: Postmenopausal females with osteoporosis; assay: Clinical study: PTH (1-84) given for one year, bone mineral density; assay type: in vivo, human; details: subcutaneous injection, 50 to 100 micrograms daily
From the text: Postmenopausal females (n=172) with osteoporosis were given intact human PTH (1-84), as a subcutaneous injection, for one year in doses from 50 to 100 micrograms daily. It was shown that bone mineral density of the spine was increased in the lumbar spine, on the average by 8%. Increases in individual patients were considerably more than 10%. The changes of the femoral neck were smaller and ranged from 1 to 3%.

Molecule	activation frequency ([1]; calculated)	bone mineral density in the femoral neck [1]	increases of lumbar spine bone mineral density in individual patients [2]	increase of bone mineral density of the lumbar spine, on the average ([2]; n=172) [%]
B1	doubled	largely unaffected	–	–
B2	–	–	more than 10%	8
